The results in this text go back to patent US20170312350A1.

Assay [1] has as its target MHC/IGF2BP3-001 tetramer (human). As to the kind of experiment: tetramer staining, flow cytometry of RNA-electroporated CD8+ T-cells. For orientation: In flow cytometry, cells or beads pass a laser one at a time.
Another assay deals with MHC/NYESO1-001 tetramer. As to the kind of experiment: tetramer staining, flow cytometry of RNA-electroporated CD8+ T-cells (unrelated-peptide tetramer).
In assay [2] the target is MHC/IGF2BP3-001 tetramer (human). As to the kind of experiment: tetramer binding by flow cytometry, lentivirally transduced primary T-cells, donor 1.
Assay [3] shares this target. As to the kind of experiment: tetramer binding by flow cytometry, lentivirally transduced primary T-cells, donor 2.

B1: TCR R10P1A7 (TCR, V domains shown)
V domain 1: GEDVEQSLFLSVREGDSSVINCTYTDSSSTYLYWYKQEPGAGLQLLTYIFSNMDMKQDQRLTVLLNKKDKHLSLRIADTQTGDSAIYFCAESKETRLMFGDGTQLVVKP
V domain 2: GAVVSQHPSWVICKSGTSVKIECRSLDFQATTMFWYRQFPKQSLMLMATSNEGSKATYEQGVEKDKFLINHASLTLSTLTVTSAHPEDSSFYICSARAGGHEQFFGPGTRLTVLE
As to B1, in assay [1], the % IGF2BP3-001 TET-positive primary CD8+ T-cells was found to be 6.78%. The % NYESO1-001 TET-positive primary CD8+ T-cells in the assay with MHC/NYESO1-001 tetramer is 1.53%.

B2: TCR R10P1A7 expressed from lentiviral construct 1864R (MSCV-R10P1A7B-2A-R10P1A7A-WPRE) (TCR, V domains shown)
V domain 1: GEDVEQSLFLSVREGDSSVINCTYTDSSSTYLYWYKQEPGAGLQLLTYIFSNMDMKQDQRLTVLLNKKDKHLSLRIADTQTGDSAIYFCAESKETRLMFGDGTQLVVKP
V domain 2: GAVVSQHPSWVICKSGTSVKIECRSLDFQATTMFWYRQFPKQSLMLMATSNEGSKATYEQGVEKDKFLINHASLTLSTLTVTSAHPEDSSFYICSARAGGHEQFFGPGTRLTVLE
In assay [2], B2 returned a % of CD3+ Tet+ of 15.2% and a % of CD8+ Tet+ of 22%. In assay [3], this molecule registered a % of CD3+ Tet+ of 8.12% and a % of CD8+ Tet+ of 11.7%.

B3: TCR R10P1A7 expressed from lentiviral construct 1863R (MSCV-R10P1A7A-2A-R10P1A7B-WPRE) (TCR, V domains shown)
V domain 1: GEDVEQSLFLSVREGDSSVINCTYTDSSSTYLYWYKQEPGAGLQLLTYIFSNMDMKQDQRLTVLLNKKDKHLSLRIADTQTGDSAIYFCAESKETRLMFGDGTQLVVKP
V domain 2: GAVVSQHPSWVICKSGTSVKIECRSLDFQATTMFWYRQFPKQSLMLMATSNEGSKATYEQGVEKDKFLINHASLTLSTLTVTSAHPEDSSFYICSARAGGHEQFFGPGTRLTVLE
For B3, in assay [2], the % of CD3+ Tet+ came to 2.3% and the % of CD8+ Tet+ was found to be 3.93%. In assay [3], the % of CD3+ Tet+ is 0.99% and the % of CD8+ Tet+ amounted to 1.79%.
